Data set [1] deals with the molecule itself. The experiment in a line: SDS-PAGE without prior crosslinking; 10 µM recombinant MIF, non-crosslinked control; sample buffer without β-mercaptoethanol; 13% SDS-PAGE and anti-MIF immunoblot.
In data set [2] the target is T1, poly-histidine tagged apo-SOD1^WT (human, UniProt P00441 1-154).
T1 construct: Cu/Zn superoxide dismutase (SOD1), human, wild type, codon-optimised, in the pHIS1 vector; Apo form; It was captured on the tris-NTA chip by its His tag; also called Cu/Zn superoxide dismutase; source: E. coli BL21, purified (HisTrap FF); not shown: His6, N-terminal, kept
T1 sequence (P00441 whole entry): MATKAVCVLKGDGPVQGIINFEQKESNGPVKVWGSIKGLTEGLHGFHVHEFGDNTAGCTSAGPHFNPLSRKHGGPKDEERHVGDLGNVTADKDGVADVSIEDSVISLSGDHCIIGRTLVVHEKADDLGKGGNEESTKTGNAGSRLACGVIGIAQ
As to the kind of experiment: SPR; ProteOn XPR36; poly-histidine tagged apo-SOD1^WT (1 µg, 736 RU) immobilised on tris-NTA HTG chip; MIF as analyte, 31-1000 nM, 25 µl/min; PBST (PBS 300 mM NaCl, 0.05% Tween-20); 25 °C; HTB1 channel subtracted; apparent affinity from steady-state values. As to conditions: both partners purified.

B1: locked-trimeric MIF mutant MIF^N110C (natural protein)
chain: PMFIVNTNVPRASVPDGFLSELTQQLAQATGKPPQYIAVHVVPDQLMAFGGSSEPCALCSLHSIGKIGGAQNRSYSKLLCGLLAERLRISPDRVYINYYDMNAANVGWNCSTFA
modifications: disulfide bridge of the introduced cysteine (N110C) with Cys-81 of an adjacent subunit
As for B1, the “stoichiometry N” value in data set [1] was 3. Further, the Kd in data set [2] amounted to 548 nM.

B2: macrophage migration inhibitory factor, wild type (MIF^WT) (natural protein, human, UniProt P14174 1-115, looked up)
chain: MPMFIVNTNVPRASVPDGFLSELTQQLAQATGKPPQYIAVHVVPDQLMAFGGSSEPCALCSLHSIGKIGGAQNRSYSKLLCGLLAERLRISPDRVYINYYDMNAANVGWNNSTFA
notes: No tag is mentioned; Surmise: the initiator methionine is removed in E. coli, since tautomerase activity was measured; also called recombinant MIF; hMIF; source: E. coli BL21 (DE3), purified (Capto Q anion exchange, Capto S cation exchange)
As for B2, the Kd in data set [2] is 1300 nM.

For the origin of these results see PMC5833700, “MIF inhibits the formation and toxicity of misfolded SOD1 amyloid aggregates: implications for familial ALS” (Cell Death & Disease, 2018).
